Laboratory results taken from the Human Domainome abundance scans (Beltran et al. 2025).
± gives the uncertainty stated by the source.

B1: V(D)J recombination-activating protein 2, residues 415 to 491; numbered along this chain, P55895 (parent)
chain: YWITCCPTCDVDINTWVPFYSTELNKPAMIYCSHGDGHWVHAQCMDLAERTLIHLSAGSNKYYCNEHVEIARALHTP

Variants of: B1
Test: abundance fitness (aPCA) (normalised: wild type 0, dead -1); higher = more abundant; growth selection in yeast, the domain comes from the species named
Conditions: Homo sapiens

Abundance fitness of substitutions, site by site:
G58: N -0.426 ± 0.19, L 0.025 ± 0.078, W -0.06 ± 0.092, Q 0.025 ± 0.092, T -0.199 ± 0.085, I -0.003 ± 0.39, V -0.161 ± 0.084, R -0.165 ± 0.076, A -0.049 ± 0.074, E 0.041 ± 0.089, F -0.221 ± 0.14, K -0.063 ± 0.13, P -0.013 ± 0.11, M -0.11 ± 0.2, H 0.013 ± 0.16, S -0.038 ± 0.071, C -0.061 ± 0.13, Y -0.126 ± 0.11, D 0.016 ± 0.096
M45: C -0.181 ± 0.099, Q 0.032 ± 0.057, K -0.202 ± 0.1, N -0.016 ± 0.18, D -0.193 ± 0.21, T -0.395 ± 0.099, E -0.265 ± 0.13, Y -0.296 ± 0.21, F -0.231 ± 0.091, I -0.615 ± 0.098, L -0.291 ± 0.066, W -0.431 ± 0.13, H 0.058 ± 0.13, V -0.217 ± 0.064, G -0.43 ± 0.058, P -1.26 ± 0.38
S56: Q -0.031 ± 0.13, A 0.078 ± 0.063, G 0.005 ± 0.037, V 0.005 ± 0.048, L -0.046 ± 0.064, T 0.004 ± 0.099, D -0.04 ± 0.092, E 0.058 ± 0.065, Y 0.052 ± 0.12, C -0.099 ± 0.11, K 0.029 ± 0.1, N -0.194 ± 0.1, F -0.052 ± 0.1, H -0.038 ± 0.14, I -0.113 ± 0.13, W -0.07 ± 0.062, P -0.074 ± 0.095
T51: D -0.042 ± 0.17, P -0.203 ± 0.098, L 0.016 ± 0.058, G -0.048 ± 0.055, E -0.016 ± 0.093, H 0.003 ± 0.14, N -0.191 ± 0.19, R 0.034 ± 0.054, W -0.412 ± 0.11, F -0.118 ± 0.12, I -0.138 ± 0.12, M -0.133 ± 0.088, A -0.025 ± 0.045, S -0.039 ± 0.073, V -0.043 ± 0.055, C -0.027 ± 0.11, K 0.014 ± 0.12, Y -0.068 ± 0.26
L47: G -0.458 ± 0.04, C -0.081 ± 0.08, M 0.05 ± 0.057, P -0.684 ± 0.09, K -0.515 ± 0.086, F -0.133 ± 0.1, E -0.307 ± 0.081, N -0.364 ± 0.11, T -0.101 ± 0.056, S -0.277 ± 0.047, D -0.571 ± 0.13, H -0.243 ± 0.094, Y -0.508 ± 0.15, V 0.034 ± 0.039, R -0.419 ± 0.042, W -0.611 ± 0.067
V40: N -0.633 ± 0.33, M -0.092 ± 0.11, K -0.316 ± 0.13, Y -0.85 ± 0.32, L -0.043 ± 0.062, Q -0.626 ± 0.24, S -0.456 ± 0.095, W -1.16 ± 0.23, I -0.081 ± 0.35, R -0.65 ± 0.1, T -0.427 ± 0.14
A48: M -0.022 ± 0.075, V -0.009 ± 0.054, G -0.078 ± 0.076, I 0.041 ± 0.11, R 0.023 ± 0.058, P 0.037 ± 0.067, E 0.013 ± 0.066, N -0.339 ± 0.27, H -0.226 ± 0.16, K -0.011 ± 0.076, S -0.066 ± 0.067, W -0.04 ± 0.089, T 0.026 ± 0.09, D -0.044 ± 0.09, Y -0.092 ± 0.13, F -0.161 ± 0.084, L 0.001 ± 0.062, C -0.061 ± 0.14, Q 0.105 ± 0.067
H41: Y -0.771 ± 0.34, D -0.785 ± 0.48, R -0.755 ± 0.25
C44: E -1.08 ± 0.23, Y -0.961 ± 0.22, V -1.11 ± 0.14, D -0.765 ± 0.17, A -1.02 ± 0.13, T -0.556 ± 0.091, W -0.98 ± 0.14, R -1.02 ± 0.1, S -0.998 ± 0.12, N -0.732 ± 0.32, I -0.972 ± 0.18, M -1.15 ± 0.45, H -1.09 ± 0.3, L -0.806 ± 0.064, K -1.23 ± 0.38, F -0.952 ± 0.31, P -0.943 ± 0.12, Q -0.969 ± 0.12, G -1.01 ± 0.11
N60: D 0.01 ± 0.13, H -0.084 ± 0.054, R -0.058 ± 0.056, K -0.114 ± 0.12, T -0.022 ± 0.063, Q -0.069 ± 0.08, S -0.062 ± 0.062, C -0.209 ± 0.12, M -0.081 ± 0.1, A 0.002 ± 0.069, G -0.017 ± 0.066, V -0.04 ± 0.068, P -0.118 ± 0.08, I -0.045 ± 0.099, F -0.273 ± 0.16, E 0.046 ± 0.083
A42: W -0.643 ± 0.067, P -0.717 ± 0.15, G -0.115 ± 0.05, T -0.744 ± 0.12, K -0.411 ± 0.11, L -0.684 ± 0.087, E -0.883 ± 0.14, M -0.313 ± 0.14, I -0.563 ± 0.38, S -0.177 ± 0.077, D -0.762 ± 0.17, Q -0.605 ± 0.17, Y -0.626 ± 0.4
